Source: article PMC6309870

Biological target: T1, HA-CEBPD (C/EBP delta, NF-IL6beta) (UniProt P49716 1-269)
T1 sequence: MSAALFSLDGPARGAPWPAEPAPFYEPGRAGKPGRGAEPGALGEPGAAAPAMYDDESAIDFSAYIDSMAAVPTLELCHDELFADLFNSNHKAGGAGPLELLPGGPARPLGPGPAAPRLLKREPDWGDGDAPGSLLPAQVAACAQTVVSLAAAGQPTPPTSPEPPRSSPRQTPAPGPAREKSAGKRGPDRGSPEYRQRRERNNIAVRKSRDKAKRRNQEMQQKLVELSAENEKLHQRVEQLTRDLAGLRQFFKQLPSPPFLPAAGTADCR
Test: EMSA, supershift

B1: PTX3 promoter site 5 (dsDNA)
DNA 1: TAAAGGGTTGTGAAATAATAAC
DNA 2: GTTATTATTTCACAACCCTTTA
binding result: binds

B2: PTX3 promoter site 1 (dsDNA)
DNA 1: TTTAATATTGTGCAACTTCCAC
DNA 2: GTGGAAGTTGCACAATATTAAA
binding result: binds
